The text below walks through data of paper PMC5014518.

The term Kd denotes the equilibrium constant for the complex coming apart. A low value points to a tighter complex.

The target in this data set is T1, 2x-p19-TAT (Carnation Italian Ringspot Virus, UniProt Q66104 1-172).
T1 sequence: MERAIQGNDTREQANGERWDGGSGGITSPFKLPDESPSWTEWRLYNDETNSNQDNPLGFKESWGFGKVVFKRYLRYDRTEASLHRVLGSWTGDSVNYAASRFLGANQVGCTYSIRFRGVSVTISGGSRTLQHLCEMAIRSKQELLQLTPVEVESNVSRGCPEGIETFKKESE
In words: EMSA.

B1: Cy3-CSK siRNA (dsRNA)
RNA 1: CUACCGCAUCAUGUACCAUTT
RNA 2: AUGGUACAUGAUGCGGUAGTT
modifications: 3' dTdT on both strands (DNA residues written TT)
The molecule B1 came in with a Kd of 0.44 ± 0.16 nM.
